Laboratory results: the supplement of paper PMC9170038

The sequences below were run on K4 kissing-loop RNA reporter (assay: apparent KD of K4 kissing-loop reporter; higher = weaker reporter binding). Details: Eterna round: R107; input ligand: FMN 200 uM.
Experimental: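 RNA-MaP round R107: designed RNA switches with theophylline, tryptophan, arginine or FMN aptamers are transcribed on-chip within common flanks. They are titrated with a labelled K4 kissing-loop RNA reporter in RNA-MaP buffer (100 mM Tris pH 7.5, 80 mM KCl, 4 mM MgCl2), without ligand or with the indicated ligand. Median apparent KD per design.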
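Note: bound reporter read as fluorescence of individual clusters on recovered sequencing chips by microscopy, with normalized cluster intensities fitted with a binding model.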

Compared with “AGUGAUGUGGGAAGGAGCGCUACAAGACUUCAGUGAUGUUGAAGUGAUGUUUUAGUGUUGUAGCAGGUAGGUCGCCUAGAUGUUA [KL-XARG-B10]”, “GUAGUCGUACCUUCAGUGAUGUUGAAGGAUACCAGAUGUUACCACAUCCCUUGGCAGCCUUGGGAUAACAGUGAGUUGGAAUAUG [Soonusa]” is 2.3-fold higher in “apparent KD of K4 kissing-loop reporter” value: 71.2 nM for the first, 161 nM for the second.

Going from “GGAUCCACCAGUGAUGUUGGAGAAAACUUCAAGGAUAUGACGAAAGUCAGAAGGUGGUAGACUGGACAAAGUCCGGUAGGAUCCA [FmnA10 U29+A78]” to “GCGCGUCAUGUCAGCGGUGACUAUGUCGAUACCAGCGCCGCAAGGCGCCCUUGGCAGCGACGCGCUGGAGUGAUGUUCCAGCGUG [#2 Exclusion - Theophylline A Attempt #10 (HarryS)]”, the “apparent KD of K4 kissing-loop reporter” value falls from 604 nM to 148 nM (4.1-fold).

Going from “GGGCGCGGCGCGGCCGCCACUGGGCCUGGGCGCUCGCUGAGUGAUGUUCGCCGGCGGCUGGGUCGUAGGACCGGGUGCCGGCUGG [BDazzled - #3 SS Tryptophan B]” to “AAGUUGAACUGAAGGAGCGAGAAAUAGAAUGUAAGAAUAUAUGCUAGUGAUGUUAGAAAUUCUCAGGUAGGUCGCAGUAAGAUUU [V1.1]”, the “apparent KD of K4 kissing-loop reporter” value falls from 610 nM to 277 nM (2.2-fold).

“ACAGUCCCGCAUGGUGCGAACGAGAGAUGGCGAGGACCGGUACGGCCGCCACUCGAACAAGUGAUGUUUGAUAUCAUUUUUCUAC [theeternabot_sameState_KL_Trp_A_10]” and “UAAGAGGACCACUGCGAGAGUCCUCGAAUACGAGGACCGGUACGGCCGCCACUCGAUAACUUGCAGUGAUGUUGCAAGUAAGAAU [BrourdMod 3 - Jieux - Same State Tryptophan A]” are within 1.5-fold of each other in “apparent KD of K4 kissing-loop reporter” value: 98.6 nM for the first, 98.9 nM for the second.

“CUGUUGUAGACUGAUACCAGUCUCACAGCAGAUGUGUGGGACUUAGUGAUGUUAAGUACCGACCCUUGGCAGCAGUCUACGACCU [Theo B SS t6]” and “GUAGUGAUGUUACGAGUAUUCCAUCGUAGAGAGGAUAUGGUUCCUUCCAGAAGGUUCUGAGAAUUAAAAUUUGAUAAAAUGAGGG [Exclusion FMN A GF 2]” are within 1.5-fold of each other in “apparent KD of K4 kissing-loop reporter” value: 428 nM for the first, 304 nM for the second.

Going from “UUGUUUGGUUGAGAGGUUGGGCGAGAUGAUACCAGUAUAGUAUUGUACCCUUGGCAGCAUAUGAGAGAUAUAGUGAUGUUGUAUG [SSTheophA.X]” to “GGCGGGUGCCCGUAAGGGUGCCCGGCCGAUACCAGCGCGACGGCGCGCCCUUGGCAGCGGCGCCGAGUGAUGUUCGGCCUGCCGU [#2 Same State - Theophylline A Attempt #24 (HarryS)]”, the “apparent KD of K4 kissing-loop reporter” value falls from 521 nM to 92.7 nM (5.6-fold).

Compared with “GAGAAUCUCACGGCCGCCACUCACCUGUUAAUUGACAUCGACGGCCUCGACCAGUGAUGUUGUGUGAGGACCGGGUGUCUCGUGU [theeternabot_exclusion_KL_Trp_B_32]”, “AUGGGCACGUCGGCCGCCACUACACGGUCCCGCGAGGGCCAGUGAUGUUGGUCGACGUGCCGUUGUAGGACCGGGACGUGGCUGU [Teatondi]” is 5.2-fold lower in “apparent KD of K4 kissing-loop reporter” value: 647 nM for the first, 125 nM for the second.

Going from “AGUGAUGUUUUUUUUAAGAGUGAUGUUUUUCGAGGACCGGUACGGCCGCCACUCGAGUGAUGAGUGAGGUGUGGUGAUGUUUAGU [#09 K4 Tryptophan A Exclusion]” to “UAAAUAAUAAAACGAGUGAUGUUCGACGAUACCAGCCUCGAUAGAGGCCCUUGGCAGCGUAUGUGAUCACUAAGCCAAGGAAUAA [#02 K4 Theophylline A Exclusion]”, the “apparent KD of K4 kissing-loop reporter” value falls from 287 nM to 164 nM (1.8-fold).

Going from “GGUGCGCUGUUAGUGAUGUUAACCGAGGAUACCAGUUAGGCGUCUAACCCUUGGCAGCCUCUCUGGUCUCAUCAACGUUGUGCUA [theeternabot_exclusion_KL_Theo_A_37]” to “UUACCAAGUGAUGUUUGGAAAUAUCCUAGGCAGGAUAUGCGGAAACGCAGAAGGGCCACCUGAUAGUGAAGGAAACUUCGCUAUC [Ex FMN A 1]”, the “apparent KD of K4 kissing-loop reporter” value falls from 600 nM to 168 nM (3.6-fold).

Going from “GUAGUGAUGUUACGAAUAUUCCAUCAUAGAGAGGAUAUUGUUCCUUCGAGAAGGUUCUGAGAAUUAAAAUUUAAUAAAAUGAAGG [Exclusion FMN A GF 1]” to “AUUAAUAACAGAGGAUAUGCAUUUUUAUUAUUUUUAAAUAUUAAAUGCAGUGAUGUUGCAUAUUAAGCAGAAGGCUGAUUUAUUU [JR_SSFMNB_Sub012]”, the “apparent KD of K4 kissing-loop reporter” value falls from 246 nM to 117 nM (2.1-fold).

Going from “GUGCGGCUAGUGAUGUUGGUUGCGUGGGAAGGAGCGCAGAAACAUGCAGGUAGGUCGCCCACAUCUCGGAUAAGAGAUUAAUUCC [Arorso]” to “UGGAGUUGACGAAAAGUCAACUCCUGAGAUACCAGUGACGAAGGUCACCCUUGGCAGCUCACUGCUAGUGAUGUUGGUAGUUAAA [whbob_SS_Theo_A_w50]”, the “apparent KD of K4 kissing-loop reporter” value rises from 291 nM to 1050 nM (3.6-fold).

First: GCUAUGGUAGGAAGGAGCGCUACUUUAUUUUUACGAGUGAUGUUCGGUAGUAGAGUGUUAAAGCAGGUAGGUCGCCUACUAUAGC [Arginine B K4 18]
Second: UUCUACGAGUGAUGUUCGUAGUGUAAUAGUUAGGAUAUCGUUUUUUCGAGAAGGAACUUCGAAGUGAUACGAAAGUAUCGCUUCG [FMN A 11]
The “apparent KD of K4 kissing-loop reporter” value of the first is 1.8-fold higher: 217 nM for the first, 122 nM for the second.

Going from “CGCGCCCAGCCGGAUACCAGUGACCCGCUGGGAACCGCGGGCCCAGAGUGAUGUUCGGGACACCCUUGGCAGCCGCCUGGGCGGU [#2 Same State - Theophylline B Attempt #10 (HarryS)]” to “GGUAUCUAUACAGAUACCAGUCGUACAGCUGCAUUACAGGUUAGUGAUGUUAACCUGUACGACCCUUGGCAGCUGUAUAGUAGUA [Theo B Ex t2b]”, the “apparent KD of K4 kissing-loop reporter” value falls from 2380 nM to 101 nM (24-fold).
